Measurements taken from US20250171562A1 (ALK ABELL, published 2025).

Biological target: T1, recombinant human IgE (human, UniProt P01854-1 1-428)
T1 construct: made in-house (ALK); preloaded on immobilised FcεRIα in the displacement ELISA
Test: IgE-FcεRIα displacement ELISA
In short: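 sdAbs at pM–μM were incubated 1 h on preformed complexes of 13 ng/ml recombinant human IgE with avi-tag-biotinylated human FcεRIα captured on streptavidin.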

T1 sequence (P01854 other isoform, or with tags, fused parts or gaps): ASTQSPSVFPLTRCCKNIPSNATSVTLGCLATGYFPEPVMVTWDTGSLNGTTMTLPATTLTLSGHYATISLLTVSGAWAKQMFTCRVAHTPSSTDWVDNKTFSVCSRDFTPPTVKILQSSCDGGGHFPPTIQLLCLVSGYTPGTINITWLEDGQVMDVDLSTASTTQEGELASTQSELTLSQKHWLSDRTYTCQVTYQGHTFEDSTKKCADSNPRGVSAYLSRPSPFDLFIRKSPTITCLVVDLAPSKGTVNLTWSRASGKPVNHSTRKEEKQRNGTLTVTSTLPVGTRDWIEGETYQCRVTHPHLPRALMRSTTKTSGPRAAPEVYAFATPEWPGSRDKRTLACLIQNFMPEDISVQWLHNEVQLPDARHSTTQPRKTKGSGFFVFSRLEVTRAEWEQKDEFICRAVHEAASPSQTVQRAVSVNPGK

Row | Binder | EC50 [nM] | Max effect [%]
1 | CIgG4F5A1(G4S)2 (Fc fusion) chain 1: GPPCPPCPAPEFLGGPSVFLFPPKPKDTLMISRTPEVTCVVVDVSQEDPEVQFNWYVDGVEVHNAKTKPREEQFNSTYRVVSVLTVLHQDWLNGKEYKCKVSNKGLPSSIEKTISKAKGQPREPQVYTLPPCQEEMTKNQVSLWCLVKGFYPSDIAVEWESNGQPENNYKTTPPVLDSDGSFFLYSRLTVDKSRWQEGNVFSCSVMHEALHNHYTQKSLSLSLGKGGGGSGGGGSDVQLQESGGGLVQPGGSLRLSCAASGSIFSIDIMGWYRQAPGKQRELVATMPEGNYINYADSVKGRLTLSRDKGKNTVYLQLNSLKPEDTAVYYCYGFGVREGRGNVYWGQGTQVTVS chain 2: GPPCPPCPAPEFLGGPSVFLFPPKPKDTLMISRTPEVTCVVVDVSQEDPEVQFNWYVDGVEVHNAKTKPREEQFNSTYRVVSVLTVLHQDWLNGKEYKCKVSNKGLPSSIEKTISKAKGQPREPQVCTLPPSQEEMTKNQVSLSCAVKGFYPSDIAVEWESNGQPENNYKTTPPVLDSDGSFFLVSRLTVDKSRWQEGNVFSCSVMHEALHNHYTQKSLSLSLGKGGGGSGGGGSEVQLLESGGGLVQPGGSLRLSCAASGFTFGNYDMAWVRQAPGKRPEWVSSIDTGGDITHYADSVKGRFTISRDNAKNTLYLQMNSLRPEDTAVYWCATDEEYALGPNEFDYYGQGTLVTVSS | 580 | 55
2 | CIgG4F6A1(RS) (Fc fusion) chain 1: GPPCPPCPAPEFLGGPSVFLFPPKPKDTLMISRTPEVTCVVVDVSQEDPEVQFNWYVDGVEVHNAKTKPREEQFNSTYRVVSVLTVLHQDWLNGKEYKCKVSNKGLPSSIEKTISKAKGQPREPQVYTLPPCQEEMTKNQVSLWCLVKGFYPSDIAVEWESNGQPENNYKTTPPVLDSDGSFFLYSRLTVDKSRWQEGNVFSCSVMHEALHNHYTQKSLSLSLGKRSDVQLQESGGGLVQAGGSLRLSCAASGLTFGSYDMGWYRQAPGKQRELVGRIRNDGITYYADSVKGRFTMSRDNAKNTVYLQMNSLKPEDTAVYYCAADGTGLGHYDYWGQGTQVTVS chain 2: GPPCPPCPAPEFLGGPSVFLFPPKPKDTLMISRTPEVTCVVVDVSQEDPEVQFNWYVDGVEVHNAKTKPREEQFNSTYRVVSVLTVLHQDWLNGKEYKCKVSNKGLPSSIEKTISKAKGQPREPQVCTLPPSQEEMTKNQVSLSCAVKGFYPSDIAVEWESNGQPENNYKTTPPVLDSDGSFFLVSRLTVDKSRWQEGNVFSCSVMHEALHNHYTQKSLSLSLGKRSEVQLLESGGGLVQPGGSLRLSCAASGFTFGNYDMAWVRQAPGKRPEWVSSIDTGGDITHYADSVKGRFTISRDNAKNTLYLQMNSLRPEDTAVYWCATDEEYALGPNEFDYYGQGTLVTVSS | – | 20
3 | CIgG4F5A1(G4S)3 (Fc fusion) chain 1: GPPCPPCPAPEFLGGPSVFLFPPKPKDTLMISRTPEVTCVVVDVSQEDPEVQFNWYVDGVEVHNAKTKPREEQFNSTYRVVSVLTVLHQDWLNGKEYKCKVSNKGLPSSIEKTISKAKGQPREPQVYTLPPCQEEMTKNQVSLWCLVKGFYPSDIAVEWESNGQPENNYKTTPPVLDSDGSFFLYSRLTVDKSRWQEGNVFSCSVMHEALHNHYTQKSLSLSLGKGGGGSGGGGSGGGGSDVQLQESGGGLVQPGGSLRLSCAASGSIFSIDIMGWYRQAPGKQRELVATMPEGNYINYADSVKGRLTLSRDKGKNTVYLQLNSLKPEDTAVYYCYGFGVREGRGNVYWGQGTQVTVS chain 2: GPPCPPCPAPEFLGGPSVFLFPPKPKDTLMISRTPEVTCVVVDVSQEDPEVQFNWYVDGVEVHNAKTKPREEQFNSTYRVVSVLTVLHQDWLNGKEYKCKVSNKGLPSSIEKTISKAKGQPREPQVCTLPPSQEEMTKNQVSLSCAVKGFYPSDIAVEWESNGQPENNYKTTPPVLDSDGSFFLVSRLTVDKSRWQEGNVFSCSVMHEALHNHYTQKSLSLSLGKGGGGSGGGGSGGGGSEVQLLESGGGLVQPGGSLRLSCAASGFTFGNYDMAWVRQAPGKRPEWVSSIDTGGDITHYADSVKGRFTISRDNAKNTLYLQMNSLRPEDTAVYWCATDEEYALGPNEFDYYGQGTLVTVSS | 400 | 65
4 | CIgG4B1A1(no linker) (Fc fusion) chain 1: GPPCPPCPAPEFLGGPSVFLFPPKPKDTLMISRTPEVTCVVVDVSQEDPEVQFNWYVDGVEVHNAKTKPREEQFNSTYRVVSVLTVLHQDWLNGKEYKCKVSNKGLPSSIEKTISKAKGQPREPQVYTLPPCQEEMTKNQVSLWCLVKGFYPSDIAVEWESNGQPENNYKTTPPVLDSDGSFFLYSRLTVDKSRWQEGNVFSCSVMHEALHNHYTQKSLSLSLGKQVQLQESGGGLVQTGGSLRLSCAVHGRTFSNTGMGWFRQAPGNERQFVAIISPSGTSTYYADSVKGRFTISRDPAKNTVYLQMNSLKMDDTAVYYCAASYGSNWSTLRHQRRNEYDAWGQGTQVAVS chain 2: GPPCPPCPAPEFLGGPSVFLFPPKPKDTLMISRTPEVTCVVVDVSQEDPEVQFNWYVDGVEVHNAKTKPREEQFNSTYRVVSVLTVLHQDWLNGKEYKCKVSNKGLPSSIEKTISKAKGQPREPQVCTLPPSQEEMTKNQVSLSCAVKGFYPSDIAVEWESNGQPENNYKTTPPVLDSDGSFFLVSRLTVDKSRWQEGNVFSCSVMHEALHNHYTQKSLSLSLGKEVQLLESGGGLVQPGGSLRLSCAASGFTFGNYDMAWVRQAPGKRPEWVSSIDTGGDITHYADSVKGRFTISRDNAKNTLYLQMNSLRPEDTAVYWCATDEEYALGPNEFDYYGQGTLVTVSS | 14 | 90
5 | CIgG4F6A1(G4S)1 (Fc fusion) chain 1: GPPCPPCPAPEFLGGPSVFLFPPKPKDTLMISRTPEVTCVVVDVSQEDPEVQFNWYVDGVEVHNAKTKPREEQFNSTYRVVSVLTVLHQDWLNGKEYKCKVSNKGLPSSIEKTISKAKGQPREPQVYTLPPCQEEMTKNQVSLWCLVKGFYPSDIAVEWESNGQPENNYKTTPPVLDSDGSFFLYSRLTVDKSRWQEGNVFSCSVMHEALHNHYTQKSLSLSLGKGGGGSDVQLQESGGGLVQAGGSLRLSCAASGLTFGSYDMGWYRQAPGKQRELVGRIRNDGITYYADSVKGRFTMSRDNAKNTVYLQMNSLKPEDTAVYYCAADGTGLGHYDYWGQGTQVTVS chain 2: GPPCPPCPAPEFLGGPSVFLFPPKPKDTLMISRTPEVTCVVVDVSQEDPEVQFNWYVDGVEVHNAKTKPREEQFNSTYRVVSVLTVLHQDWLNGKEYKCKVSNKGLPSSIEKTISKAKGQPREPQVCTLPPSQEEMTKNQVSLSCAVKGFYPSDIAVEWESNGQPENNYKTTPPVLDSDGSFFLVSRLTVDKSRWQEGNVFSCSVMHEALHNHYTQKSLSLSLGKGGGGSEVQLLESGGGLVQPGGSLRLSCAASGFTFGNYDMAWVRQAPGKRPEWVSSIDTGGDITHYADSVKGRFTISRDNAKNTLYLQMNSLRPEDTAVYWCATDEEYALGPNEFDYYGQGTLVTVSS | – | 25

Now from value to binder:

Row | EC50 [nM] | Max effect [%] | Binder
6 | 8 | 75 | CIgG4F6A1(G4S)2 (Fc fusion) chain 1: GPPCPPCPAPEFLGGPSVFLFPPKPKDTLMISRTPEVTCVVVDVSQEDPEVQFNWYVDGVEVHNAKTKPREEQFNSTYRVVSVLTVLHQDWLNGKEYKCKVSNKGLPSSIEKTISKAKGQPREPQVYTLPPCQEEMTKNQVSLWCLVKGFYPSDIAVEWESNGQPENNYKTTPPVLDSDGSFFLYSRLTVDKSRWQEGNVFSCSVMHEALHNHYTQKSLSLSLGKGGGGSGGGGSDVQLQESGGGLVQAGGSLRLSCAASGLTFGSYDMGWYRQAPGKQRELVGRIRNDGITYYADSVKGRFTMSRDNAKNTVYLQMNSLKPEDTAVYYCAADGTGLGHYDYWGQGTQVTVS chain 2: GPPCPPCPAPEFLGGPSVFLFPPKPKDTLMISRTPEVTCVVVDVSQEDPEVQFNWYVDGVEVHNAKTKPREEQFNSTYRVVSVLTVLHQDWLNGKEYKCKVSNKGLPSSIEKTISKAKGQPREPQVCTLPPSQEEMTKNQVSLSCAVKGFYPSDIAVEWESNGQPENNYKTTPPVLDSDGSFFLVSRLTVDKSRWQEGNVFSCSVMHEALHNHYTQKSLSLSLGKGGGGSGGGGSEVQLLESGGGLVQPGGSLRLSCAASGFTFGNYDMAWVRQAPGKRPEWVSSIDTGGDITHYADSVKGRFTISRDNAKNTLYLQMNSLRPEDTAVYWCATDEEYALGPNEFDYYGQGTLVTVSS
7 | 3.3 | 90 | CIgG4F6A1(G4S)3 (Fc fusion) chain 1: GPPCPPCPAPEFLGGPSVFLFPPKPKDTLMISRTPEVTCVVVDVSQEDPEVQFNWYVDGVEVHNAKTKPREEQFNSTYRVVSVLTVLHQDWLNGKEYKCKVSNKGLPSSIEKTISKAKGQPREPQVYTLPPCQEEMTKNQVSLWCLVKGFYPSDIAVEWESNGQPENNYKTTPPVLDSDGSFFLYSRLTVDKSRWQEGNVFSCSVMHEALHNHYTQKSLSLSLGKGGGGSGGGGSGGGGSDVQLQESGGGLVQAGGSLRLSCAASGLTFGSYDMGWYRQAPGKQRELVGRIRNDGITYYADSVKGRFTMSRDNAKNTVYLQMNSLKPEDTAVYYCAADGTGLGHYDYWGQGTQVTVS chain 2: GPPCPPCPAPEFLGGPSVFLFPPKPKDTLMISRTPEVTCVVVDVSQEDPEVQFNWYVDGVEVHNAKTKPREEQFNSTYRVVSVLTVLHQDWLNGKEYKCKVSNKGLPSSIEKTISKAKGQPREPQVCTLPPSQEEMTKNQVSLSCAVKGFYPSDIAVEWESNGQPENNYKTTPPVLDSDGSFFLVSRLTVDKSRWQEGNVFSCSVMHEALHNHYTQKSLSLSLGKGGGGSGGGGSGGGGSEVQLLESGGGLVQPGGSLRLSCAASGFTFGNYDMAWVRQAPGKRPEWVSSIDTGGDITHYADSVKGRFTISRDNAKNTLYLQMNSLRPEDTAVYWCATDEEYALGPNEFDYYGQGTLVTVSS
8 | 2.9 | > 95 | CIgG4A1B1(G4S)1 (Fc fusion, B1 on the hole (437), A1 on the knob (106)) chain 1: GPPCPPCPAPEFLGGPSVFLFPPKPKDTLMISRTPEVTCVVVDVSQEDPEVQFNWYVDGVEVHNAKTKPREEQFNSTYRVVSVLTVLHQDWLNGKEYKCKVSNKGLPSSIEKTISKAKGQPREPQVCTLPPSQEEMTKNQVSLSCAVKGFYPSDIAVEWESNGQPENNYKTTPPVLDSDGSFFLVSRLTVDKSRWQEGNVFSCSVMHEALHNHYTQKSLSLSLGKGGGGSQVQLQESGGGLVQTGGSLRLSCAVHGRTFSNTGMGWFRQAPGNERQFVAIISPSGTSTYYADSVKGRFTISRDPAKNTVYLQMNSLKMDDTAVYYCAASYGSNWSTLRHQRRNEYDAWGQGTQVAVS chain 2: GPPCPPCPAPEFLGGPSVFLFPPKPKDTLMISRTPEVTCVVVDVSQEDPEVQFNWYVDGVEVHNAKTKPREEQFNSTYRVVSVLTVLHQDWLNGKEYKCKVSNKGLPSSIEKTISKAKGQPREPQVYTLPPCQEEMTKNQVSLWCLVKGFYPSDIAVEWESNGQPENNYKTTPPVLDSDGSFFLYSRLTVDKSRWQEGNVFSCSVMHEALHNHYTQKSLSLSLGKGGGGSEVQLLESGGGLVQPGGSLRLSCAASGFTFGNYDMAWVRQAPGKRPEWVSSIDTGGDITHYADSVKGRFTISRDNAKNTLYLQMNSLRPEDTAVYWCATDEEYALGPNEFDYYGQGTLVTVSS
